The target of assay [1] is T1, Human ANGPTL4(26-406)-FLAG-His6-Avi (human, UniProt Q9BY76 24-406, biotin on the C-terminal Avi tag in the biotinylated preparations (immobilised form in SET, ELISA and Octet)).
T1 sequence: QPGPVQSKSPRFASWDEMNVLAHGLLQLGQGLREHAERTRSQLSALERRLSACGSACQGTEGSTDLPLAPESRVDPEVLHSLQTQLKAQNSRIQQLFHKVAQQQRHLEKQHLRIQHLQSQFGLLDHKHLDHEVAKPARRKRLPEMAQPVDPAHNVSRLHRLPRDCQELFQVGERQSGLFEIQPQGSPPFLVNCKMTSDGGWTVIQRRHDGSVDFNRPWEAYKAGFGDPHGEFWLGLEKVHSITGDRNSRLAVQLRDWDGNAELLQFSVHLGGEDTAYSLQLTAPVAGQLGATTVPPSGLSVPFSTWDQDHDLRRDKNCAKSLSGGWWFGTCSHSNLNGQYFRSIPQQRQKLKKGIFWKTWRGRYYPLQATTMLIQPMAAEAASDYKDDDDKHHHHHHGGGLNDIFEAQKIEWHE
Kind of assay: cell-based or functional assay.

Assay [2] addresses T1, Human ANGPTL4(26-406)-FLAG-His6-Avi. Kind of assay: SET assay (solution equilibrium titration, MSD), IgG. Here is the method: SET assays were performed as follows. In a 96-well polypropylene plate, a constant concentration of ANGPTL4 antibody was mixed with different concentrations of non-biotinylated human, cyno, mouse, or rat full-length ANPGLT4 protein, or human ANGPTL4 N-terminal domain protein (5-fold serial dilution) and incubated at 22° C. for 14 hours with constant shaking (300 rpm). On a pre-blocked 384-well streptavidin-coated Meso Scale Discovery (MSD) plate biotinylated ANGPTL4 (full-length human, cyno, mouse, or rat ANGPTL4, or human ANGPTL4 N-terminal domain) protein (1 nM, 15 μL per well) was immobilized and washed thereafter.
The equilibrium binding reactions (15 μL per well) were applied to the MSD plate with immobilized ANGPTL4 and incubated for 20 min at 22° C. The unbound material was removed by washing the plate 3 times with wash buffer, and the captured antibody was detected by adding Sulfo-tagged goat anti-human IgG (Meso Scale Discovery). After washing MSD read buffer T was added and the plate was developed using a Sector Imager 6000 (Meso Scale Discovery). The data were transferred to Microsoft Excel for analysis and plotted using GraphPad Prism v6. The KD values were determined by fitting the data to the following equation: […]
where Bₘₐₓ is the signal when no ANGPTL4 protein is present in solution, CAb is the constant concentration of ANGPTL4 antibody in solution, CAg is the concentration of ANGPTL4 in solution, and KD is the equilibrium dissociation constant.

Assay [3] shares this target. Put plainly: ForteBio Octet, biotinylated antigen on streptavidin sensor, antibody in solution. As to the method: Dissociation constants (KD) were determined for selected antibodies of the invention by using an Octet (ForteBio) kinetic binding assay. ForteBio 10× Kinetics Buffer (ForteBio, catalog number 18-5032) was diluted 10-fold with DPBS (Life Technologies, catalog number 14190-136), and the resulting solution was added (0.2 ml per well) to a 96-well plate (Greiner, catalog number 65520). Streptavidin sensors (ForteBio, catalog number 18-5020) were immersed in the solution and equilibrated for at least 10 min at room temperature. In a second 96-well plate (Greiner, catalog number 65520), sensors were washed in 1× Kinetics buffer, and then immersed in 200 ul of 25 nM biotinylated human ANGPTL4 or a biotinylated reference protein (for background substraction) for 1000 sec […] at room temperature. The sensors were then washed in 1× Kinetics buffer for 120 sec, and immersed in 200 ul of ANGPTL4 antibody diluted in 1× Kinetics buffer at various concentrations (serial 2-fold dilutions ranging from 25 nM to 0.4 nM), and antibody association was monitored for 480 seconds. The sensors were then transferred to a well containing 200 ul 1× Kinetics buffer, and antibody dissociation was monitored for 1200 seconds. Background-corrected association and dissociation curves were globally fitted by Octet Software (ForteBio) to generate association (kₒₙ) and dissociation (koff) rate constants, which in turn were used to calculate equilibrium dissociation constants (KD).

In assay [4] the target is T2, Human ANGPTL3(17-460)-FLAG-His-Avi (human, UniProt Q9Y5C1 17-460, biotin on the C-terminal Avi tag).
T2 construct: also called full length human ANGPTL3; hANGPTL3
T2 sequence: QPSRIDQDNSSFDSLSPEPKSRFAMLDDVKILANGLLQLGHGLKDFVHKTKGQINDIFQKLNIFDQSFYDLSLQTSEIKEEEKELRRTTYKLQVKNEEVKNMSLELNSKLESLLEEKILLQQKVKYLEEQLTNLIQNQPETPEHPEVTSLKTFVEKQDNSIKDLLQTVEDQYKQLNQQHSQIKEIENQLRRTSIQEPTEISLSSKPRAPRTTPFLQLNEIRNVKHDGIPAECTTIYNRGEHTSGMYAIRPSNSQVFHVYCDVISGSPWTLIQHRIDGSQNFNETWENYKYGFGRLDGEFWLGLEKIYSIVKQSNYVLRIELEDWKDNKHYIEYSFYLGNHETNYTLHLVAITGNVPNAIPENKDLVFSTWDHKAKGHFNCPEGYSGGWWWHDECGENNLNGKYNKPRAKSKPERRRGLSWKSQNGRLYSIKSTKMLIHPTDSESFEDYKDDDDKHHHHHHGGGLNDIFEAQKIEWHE
Kind of assay: direct ELISA on streptavidin-coated MSD plate: biotinylated antigen immobilised at 1 nM, antibody at 1 nM, detection with Sulfo-tagged goat anti-human IgG. As to the method: Direct ELISA assays were conducted to characterize antibody binding specificity of selected antibodies of the invention. The assay was performed as follows. A 384-well streptavidin-coated Meso Scale Discovery (MSD) plate was blocked by incubating the plate with 50 μL Blocking Buffer (PBS, pH 7.4, 5% w/v bovine serum albumin) per well at 22° C. for 1 hour with constant shaking (600 rpm). The blocked MSD plate was then washed 3 times with Wash Buffer (PBS, pH 7.4 and 0.05% v/v Tween-20) using a plate washer (BioTek). Following washing, biotinylated human ANGPTL4 proteins diluted in Assay Buffer (PBS, pH 7.4 without CaCl₂ or MgCl₂, 0.5% w/v fatty acid-free bovine serum albumin and 0.02% v/v Tween-20) were immobilized on the surface by incubation at 1 nM concentration (15 μL per well) at 22° C. for one hour: full length human ANGPTL4 (hANGPTL4), human ANGPTL4 coiled-coil domain (hANGPTL4-CCD) and full length human ANGPTL3 (hANGPTL3). The plate was then washed 3 times as described earlier. Antibody diluted to 1 nM concentration in Assay Buffer was then applied to the MSD plate […], and the plate was incubated for 1 hour at 22° C. with constant shaking (600 rpm). Bound antibodies were detected by adding 15 μL per well of a 1:500 dilution of Sulfo-tagged goat anti-human IgG. The plate was then incubated for one hour with constant shaking (600 rpm). The plate was washed 3 times, and then 15 μL/well of 1×MSD read buffer T was added and the plate was developed using a Sector Imager 6000 (Meso Scale Discovery). The data were transferred to Microsoft Excel for analysis and plotted using GraphPad Prism v6. […] An ANGPTL3-specific reference antibody was used as a positive control for the ANGPTL3 binding assay (FIG. 2).

The target in assay [5] is T1, Human ANGPTL4(26-406)-FLAG-His6-Avi. Put plainly: cell-based or functional assay. This is another data set of the same source.
The target is the same in assay [6]. Put plainly: cell-based or functional assay. This is another data set of the same source.

Positions count from the first letter of the chain named.

Experimental findings from US20160108110A1 (Novartis, published 2016) are described below.

B1: MOR021795 (antibody, human IgG1, lambda, V domains shown)
VH: QVQLVQSGAEVKKPGSSVKVSCKASGGTFNSYAISWVRQAPGQGLEWMGGIIPLFGFANYAQKFQGRVTITADESTSTAYMELSSLRSEDTAVYYCARESYDPYAFDVWGQGTLVTVSS
VL: DIELTQPPSVSVSPGQTASITCSGDNLGKYSASWYQQKPGQAPVLVIHQDNNRPSGIPERFSGSNSGNTATLTISGTQAEDEADYYCASRAHSMHVVFGGGTKLTVLG
notes: human IgG1
One may read the Kd as the free concentration of one partner at which half of the binding sites on the other are occupied at equilibrium, for simple one-to-one binding. Low values mean tighter binding, high ones weaker binding. Usually koff stands for the rate constant with which the complex falls apart. Low values mean a long-lived complex, high ones a short-lived complex. A word on the kon: it is the second-order rate constant of association. Regarding B1, the “Reversal of human ANGPTL4 inhibition of human LPL EC50” value in assay [1] was determined as 12 nM. In assay [2], this molecule had a Kd of 0.036 nM. In assay [3], this molecule had a dissociation constant Kd of 0.304 nM, a dissociation rate constant (koff) of 7.4e-05 s⁻¹ and a kon of 240000 M⁻¹ s⁻¹. Besides, the binding result in assay [4] was “no binding (tested: 1 nM)”.

B2: MOR021823 (antibody, human IgG1, kappa, V domains shown)
VH: QVQLLESGGGLVQPGGSLRLSCAASGFTFSSYYLHWVRQAPGKGLEWVSYISGDGSSTYYADSVKGRFTISRDNSKNTLYLQMNSLRAEDTAVYYCARERSYAHDHWGQGTLVTVSS
VL: DIQMTQSPSSLSASVGDRVTITCRASQDIYIDLNWYQQKPGKAPKLLIYAASKLQSGVPSRFSGSGSGTDFTLTISSLQPEDFATYYCQQGYFLPQTFGQGTKVEIKR
notes: human IgG1
As to B2, the “Reversal of human ANGPTL4 inhibition of human LPL EC50” value in assay [1] turned out to be 1 nM. In addition, in assay [5], the “EC50 (read off the curve) [1(E]” value was roughly 0.5 nM. Further, binding in assay [2] was put at a Kd of 0.009 nM. In assay [3], the equilibrium dissociation constant (Kd) is 0.047 nM, the koff came to 2.5e-05 s⁻¹ and the on-rate (kon) came out at 530000 M⁻¹ s⁻¹. For the same molecule, the binding result in assay [4] is reported as “no binding (tested: 1 nM)”.

B3: MOR021830 (antibody, human IgG1, kappa, V domains shown)
VH: QVQLLESGGGLVQPGGSLRLSCAASGFTFSSYWMHWVRQAPGKGLEWVSGISYDGSSTNYADSVKGRFTISRDNSKNTLYLQMNSLRAEDTAVYYCARDSYIYDLHWGFDNWGQGTLVTVSS
VL: B2 VL with Y30S, I31S, D32Y, K53R, G91S, F93T, L94H, Q96Y
notes: human IgG1
For the molecule B3, the “Reversal of human ANGPTL4 inhibition of human LPL EC50” value in assay [1] came to 4 nM. In assay [5], the “EC50 (read off the curve) [1(F]” value is roughly 1 nM. This molecule also showed a Kd in assay [2] of 0.026 nM. For the same molecule, in assay [3], the affinity, expressed as Kd, was 0.069 nM; the koff is 1.5e-05 s⁻¹; the kon was found to be 210000 M⁻¹ s⁻¹. The binding result in assay [4] is “no binding (tested: 1 nM)”.

B4: MOR021800 (antibody, human IgG1, lambda, V domains shown)
VH: QVQLVQSGAEVKKPGESLKISCKGSGYSFSTYWISWVRQMPGKGLEWMGIIDPSNSDTRYSPSFQGQVTISADKSISTAYLQWSSLKASDTAMYYCARVYGYVYMDVWGQGTLVTVSS
VL: DIELTQPPSVSVSPGQTASITCSGDNLGKKYAYWYQQKPGQAPVLVIYDKTKRPSGIPERFSGSNSGNTATLTISGTQAEDEADYYCASYDWYSSSYVFGGGTKLTVLG
notes: human IgG1
For B4, the “Reversal of human ANGPTL4 inhibition of human LPL EC50” value in assay [1] stood at 1 nM. In assay [6], the “EC50 (read off the curve) [1(D]” value was roughly 0.5 nM. Further, the equilibrium dissociation constant (Kd) in assay [2] was 0.017 nM. In assay [3], this molecule had a dissociation constant (Kd) of 0.134 nM, a koff of 5.6e-05 s⁻¹ and an on-rate (kon) of 420000 M⁻¹ s⁻¹. Moreover, the binding result in assay [4] is given as “no binding (tested: 1 nM)”.
